Entries after “also recorded” stand apart in the source; their conditions may differ. Peptide text beside a SMILES is read from it. * marks the point of attachment. X1 = CC1(C)C(/C=C/C=C/C=C/C=C2/N(CCCCCC(=O)NCCN3C(=O)CC(*)C3=O)c3ccc4ccccc4c3C2(C)C)=[N+](CCCCS(=O)(=O)[O-])c2ccc3ccccc3c21
Legend:
[1] = system: human mammary epithelial cells (HMEpC); test: Cytotoxicity, cell viability (CellTiter 96 AQueous One); format: cell-based; conditions: 0.125 up to 16 µM, 72 h, absorbance 490 nm, triplicate
Procedure: Human mammary epithelial cells (HMEpC) acquired from Cell Applications, Inc. were authenticated and stored according to supplier’s instructions. Cells were cultured in mammary epithelial cell growth medium provided by the manufacturer. HMEpC cells were loaded in the wells of 96-well plates (~6,000 cells per well) and incubated overnight. Increasing amounts of pHLIP ICG dissolved in cell growth medium were added to cells to give the following final concentrations of pHLIP ICG with cells: 0.125, 0.25, 0.5, 1, 2, 4, 8 and 16 μM. After 48 and 72 hours of incubation, a colorimetric reagent (CellTiter 96 AQueous One Solution Assay, Promega) was added for 2 hours followed by measuring absorbance at 490 nm to assess cell viability. All samples were prepared in triplicate and each experiment was repeated several times.

[2] = system: human peripheral blood lymphocytes; test: In vitro mammalian cell micronucleus test; format: cell-based; conditions: up to 0.5 mg/mL
Procedure: The objective of this study performed at CRL was to determine the potential genotoxicity of pHLIP ICG using an in vitro mammalian cell micronucleus test in human peripheral blood lymphocytes.
Human peripheral blood lymphocytes were treated with pHLIP ICG at levels up to the standard limit of 0.5 mg/mL. […] The negative control results were within the laboratory negative historical control range. Lymphocytes were also incubated with standard positive controls, which caused statistically significant increases in the proportion of cells with micronuclei, confirming the sensitivity of the test system and the activity of the S9 mix. All criteria for a valid assay were therefore met.

[3] = Pharmacokinetics in Beagle dogs, single i.v. bolus injection; format: in vivo; conditions: male, dog, plasma, iv, mean
Procedure: The objective of this study performed at CRL was to characterize the pharmacokinetic profile of pHLIP ICG in Beagle dogs following a single i.v. injection.
Blood samples were collected at 5, 15, and 30 minutes, and 1, 2, 4, 6, 8, 12, 24, and 48 hours post-dose for pharmacokinetic evaluation. Samples were placed on crushed wet ice until centrifugation, which was carried out immediately. The samples were centrifuged as per standard procedures. An aliquot of 250 µL of the resultant plasma was separated, transferred to 2.0 mL low-bind tubes containing 1.25 mL of methanol, mixed and frozen immediately over dry ice and transferred to a freezer at -80°C. At the time of analysis, samples were thawed, extracted, and analyzed via LC-MS/MS according to the validated protocol using pHLIPIS.

[4] = system: 4T1 tumor; test: Biodistribution and kinetics, ex vivo fluorescence imaging of organs; format: in vivo, BALB/c mice; conditions: post-administration, decay after 6 h
Procedure: BALB/cAcNHsd mice ranging in age from 5 to 6 weeks obtained from Envigo RMS, Inc. were used in the study. Mouse mammary 4T1 cancer cells were subcutaneously implanted in the right flank (8 x 10^5 cells/0.1 mL/flank) of adult female or male mice. The triple-negative 4T1 tumor model closely mimics stage IV of human breast cancer. When tumors reached […] in diameter, single tail vein injections of 0.5 mg/kg of pHLIP ICG in sterile PBS, or PBS with 5% DMSO or 5% Ethanol (vol:vol) (volume of the injection was 100 μl) were performed. Animals were euthanized 5 min, 1, 2, 4, 6, 16, 26 and 48 hrs after pHLIP ICG administration. Several animals were used for each time point plus seven control animals (no pHLIP ICG administration). Tumor, muscles, skin, heart, lungs, liver, spleen, kidneys, brain, pancreas, bone, stomach, small and large intestines were collected, and imaged immediately after necropsy. […] The background signal was determined by introducing an intensity threshold. All the pixels with intensity above the set threshold were counted and the average intensity per pixel was calculated. For organs for which the highest illumination light intensity produced a saturated image, the medium illumination light intensity images were analyzed, then converted to a comparison using experimentally established conversion curves.

SMILES: CC(C)C[C@H](NC(=O)[C@H](Cc1ccc(O)cc1)NC(=O)[C@H](C)NC(=O)[C@H](CCCNC(=N)N)NC(=O)[C@H](Cc1c[nH]c2ccccc12)NC(=O)[C@@H]1CCCN1C(=O)[C@H](CC(N)=O)NC(=O)[C@H](CCC(N)=O)NC(=O)[C@H](CC(=O)O)NC(=O)[C@H](CC(=O)O)NC(=O)[C@H](CSC1CC(=O)N(CCNC(=O)CCCCCN2/C(=C/C=C/C=C/C=C/C3=[N+](CCCCS(=O)(=O)[O-])c4ccc5ccccc5c4C3(C)C)C(C)(C)c3c2ccc2ccccc32)C1=O)NC(=O)[C@H](C)N)C(=O)N[C@@H](CC(=O)O)C(=O)N[C@@H](CC(C)C)C(=O)N[C@@H](CC(C)C)C(=O)N[C@@H](Cc1ccccc1)C(=O)N1CCC[C@H]1C(=O)N[C@H](C(=O)N[C@@H](CC(=O)O)C(=O)N[C@H](C(=O)N[C@@H](CC(C)C)C(=O)N[C@@H](CC(C)C)C(=O)N[C@@H](CC(C)C)C(=O)N[C@@H](CC(=O)O)C(=O)N[C@@H](CC(C)C)C(=O)N[C@@H](CC(C)C)C(=O)N[C@@H](Cc1c[nH]c2ccccc12)C(=O)N[C@@H](C)C(=O)O)[C@@H](C)O)[C@@H](C)O (stereo partly shown) [pHLIP ICG] (H-AC(X1)DDQNPWRAYLDLLFPTDTLLLDLLWA-OH)
- Cytotoxic effect (cell viability) [1]: did not show any cytotoxic effect at any tested concentration
- Cytotoxicity or precipitation in the assay [2]: no pHLIP ICG related cytotoxicity or precipitation was observed
- Induction of micronuclei ([2]; 4 h without/with S9, 24 h without S9): did not show any evidence of genotoxic activity; also recorded: negative for the induction of micronuclei
- clearance ([3]; single i.v. 0.064 mg/kg, read-out: Clearance (Cl) (converted)): 0.193 mL/min/kg
- half-life ([3]; single i.v. 0.064 mg/kg, read-out: Elimination half-time (T1/2) (converted)): 3.7 h
- Vd ([3]; single i.v. 0.064 mg/kg, read-out: Volume of distribution (Vz)): 0.0616 L/kg
- AUC(0-inf) ([3]; single i.v. bolus 0.064 mg/kg): 5550 ng·h/mL
- C0 ([3]; single i.v. bolus 0.064 mg/kg, 3 males, read-out: C0 (theoretical concentration at time zero)): 1410 ng/mL
- AUC(0-t) ([3]; single i.v. bolus 0.064 mg/kg, read-out: AUC0-48hr): 5450 ng·h/mL
- Time of maximum signal in the liver [4]: 1 h

Source: paper PMC7591906, “pHLIP ICG for delineation of tumors and blood flow during fluorescence-guided surgery” (Scientific Reports, 2020)
